US20020004485A1
Square brackets hold non-standard residues; d marks the D form. Ends that are not written are not given here. * marks the point of attachment. Benzoyl(3-OMe) = COc1cccc(C(=O)*)c1; Benzoyl(4-OMe) = COc1ccc(C(=O)*)cc1; d2Thi = N[C@H](Cc1cccs1)C(=O)O; dNal = D-naphthylalanine

B1: S-167 (peptide)
peptide: {Benzoyl(4-OMe)}-AKLL[d2Thi]I[dL]-NH2
SMILES: CC[C@H](C)[C@H](NC(=O)[C@@H](Cc1cccs1)NC(=O)[C@H](CC(C)C)NC(=O)[C@H](CC(C)C)NC(=O)[C@H](CCCCN)NC(=O)[C@H](C)NC(=O)c1ccc(OC)cc1)C(=O)N[C@H](CC(C)C)C(N)=O
B2: p-Anisoyl-Arg-Tyr-Tyr-Arg-D-Trp-Lys-NH2 (peptide)
peptide: {Benzoyl(4-OMe)}-RYYR[dW]K-NH2
SMILES: COc1ccc(C(=O)N[C@@H](CCCNC(=N)N)C(=O)N[C@@H](Cc2ccc(O)cc2)C(=O)N[C@@H](Cc2ccc(O)cc2)C(=O)N[C@@H](CCCNC(=N)N)C(=O)N[C@H](Cc2c[nH]c3ccccc23)C(=O)N[C@@H](CCCCN)C(N)=O)cc1
B3: SQW-9 (peptide)
peptide: {Benzoyl(3-OMe)}-RRARPKL-NH2
SMILES: COc1cccc(C(=O)N[C@@H](CCCNC(=N)N)C(=O)N[C@@H](CCCNC(=N)N)C(=O)N[C@@H](C)C(=O)N[C@@H](CCCNC(=N)N)C(=O)N2CCC[C@H]2C(=O)N[C@@H](CCCCN)C(=O)N[C@@H](CC(C)C)C(N)=O)c1
B4: S-160 (peptide)
peptide: {Benzoyl(4-OMe)}-RKAL[d2Thi]I[dL]-NH2
SMILES: CC[C@H](C)[C@H](NC(=O)[C@@H](Cc1cccs1)NC(=O)[C@H](CC(C)C)NC(=O)[C@H](C)NC(=O)[C@H](CCCCN)NC(=O)[C@H](CCCNC(=N)N)NC(=O)c1ccc(OC)cc1)C(=O)N[C@H](CC(C)C)C(N)=O
B5: S-165 (peptide)
peptide: {Benzoyl(4-OMe)}-RKLA[d2Thi]I[dL]-NH2
SMILES: CC[C@H](C)[C@H](NC(=O)[C@@H](Cc1cccs1)NC(=O)[C@H](C)NC(=O)[C@H](CC(C)C)NC(=O)[C@H](CCCCN)NC(=O)[C@H](CCCNC(=N)N)NC(=O)c1ccc(OC)cc1)C(=O)N[C@H](CC(C)C)C(N)=O
B6: SQW-11 (peptide)
peptide: {Benzoyl(3-OMe)}-RRIRAKL-NH2
SMILES: CC[C@H](C)[C@H](NC(=O)[C@H](CCCNC(=N)N)NC(=O)[C@H](CCCNC(=N)N)NC(=O)c1cccc(OC)c1)C(=O)N[C@@H](CCCNC(=N)N)C(=O)N[C@@H](C)C(=O)N[C@@H](CCCCN)C(=O)N[C@@H](CC(C)C)C(N)=O
B7: S-118 (peptide)
peptide: {Benzoyl(4-OMe)}-AKLL[d2Thi]I[dL]-NH2
SMILES: CC[C@H](C)[C@H](NC(=O)[C@@H](Cc1cccs1)NC(=O)[C@H](CC(C)C)NC(=O)[C@H](CC(C)C)NC(=O)[C@H](CCCCN)NC(=O)[C@H](C)NC(=O)c1ccc(OC)cc1)C(=O)N[C@H](CC(C)C)C(N)=O
B8: SQW-2 (peptide)
peptide: {Benzoyl(4-OMe)}-RRI[dR]P[dK][dL]-NH2
SMILES: CC[C@H](C)[C@H](NC(=O)[C@H](CCCNC(=N)N)NC(=O)[C@H](CCCNC(=N)N)NC(=O)c1ccc(OC)cc1)C(=O)N[C@H](CCCNC(=N)N)C(=O)N1CCC[C@H]1C(=O)N[C@H](CCCCN)C(=O)N[C@H](CC(C)C)C(N)=O
B9: S-116 (peptide)
peptide: {Benzoyl(4-OMe)}-RKLL[dY]I[dL]-NH2
SMILES: CC[C@H](C)[C@H](NC(=O)[C@@H](Cc1ccc(O)cc1)NC(=O)[C@H](CC(C)C)NC(=O)[C@H](CC(C)C)NC(=O)[C@H](CCCCN)NC(=O)[C@H](CCCNC(=N)N)NC(=O)c1ccc(OC)cc1)C(=O)N[C@H](CC(C)C)C(N)=O
B10: S-163 (peptide)
peptide: {Benzoyl(4-OMe)}-RKLL[d2Thi]A[dL]-NH2
SMILES: COc1ccc(C(=O)N[C@@H](CCCNC(=N)N)C(=O)N[C@@H](CCCCN)C(=O)N[C@@H](CC(C)C)C(=O)N[C@@H](CC(C)C)C(=O)N[C@H](Cc2cccs2)C(=O)N[C@@H](C)C(=O)N[C@H](CC(C)C)C(N)=O)cc1
B11: SQW-8 (peptide)
peptide: {Benzoyl(3-OMe)}-RAIRPKL-NH2
SMILES: CC[C@H](C)[C@H](NC(=O)[C@H](C)NC(=O)[C@H](CCCNC(=N)N)NC(=O)c1cccc(OC)c1)C(=O)N[C@@H](CCCNC(=N)N)C(=O)N1CCC[C@H]1C(=O)N[C@@H](CCCCN)C(=O)N[C@@H](CC(C)C)C(N)=O
B12: S-162 (peptide)
peptide: {Benzoyl(4-OMe)}-RKLL[d2Thi]I[dA]-NH2
SMILES: CC[C@H](C)[C@H](NC(=O)[C@@H](Cc1cccs1)NC(=O)[C@H](CC(C)C)NC(=O)[C@H](CC(C)C)NC(=O)[C@H](CCCCN)NC(=O)[C@H](CCCNC(=N)N)NC(=O)c1ccc(OC)cc1)C(=O)N[C@H](C)C(N)=O
B13: Ac-Arg-Tyr-Tyr-Arg-D-Trp-Lys-NH2 (peptide)
peptide: Ac-RYYR[dW]K-NH2
SMILES: CC(=O)N[C@@H](CCCNC(=N)N)C(=O)N[C@@H](Cc1ccc(O)cc1)C(=O)N[C@@H](Cc1ccc(O)cc1)C(=O)N[C@@H](CCCNC(=N)N)C(=O)N[C@H](Cc1c[nH]c2ccccc12)C(=O)N[C@@H](CCCCN)C(N)=O
B14: S-166 (peptide)
peptide: {Benzoyl(4-OMe)}-RALL[d2Thi]I[dL]-NH2
SMILES: CC[C@H](C)[C@H](NC(=O)[C@@H](Cc1cccs1)NC(=O)[C@H](CC(C)C)NC(=O)[C@H](CC(C)C)NC(=O)[C@H](C)NC(=O)[C@H](CCCNC(=N)N)NC(=O)c1ccc(OC)cc1)C(=O)N[C@H](CC(C)C)C(N)=O
B15: SQW-3 (peptide)
peptide: {Benzoyl(4-OMe)}-R[dR]I[dR]P[dK][dL]-NH2
SMILES: CC[C@H](C)[C@H](NC(=O)[C@@H](CCCNC(=N)N)NC(=O)[C@H](CCCNC(=N)N)NC(=O)c1ccc(OC)cc1)C(=O)N[C@H](CCCNC(=N)N)C(=O)N1CCC[C@H]1C(=O)N[C@H](CCCCN)C(=O)N[C@H](CC(C)C)C(N)=O
B16: SQW-7 (peptide)
peptide: {Benzoyl(3-OMe)}-ARIRPKL-NH2
SMILES: CC[C@H](C)[C@H](NC(=O)[C@H](CCCNC(=N)N)NC(=O)[C@H](C)NC(=O)c1cccc(OC)c1)C(=O)N[C@@H](CCCNC(=N)N)C(=O)N1CCC[C@H]1C(=O)N[C@@H](CCCCN)C(=O)N[C@@H](CC(C)C)C(N)=O
B17: S-164 (peptide)
peptide: {Benzoyl(4-OMe)}-RKLL[dA]I[dL]-NH2
SMILES: CC[C@H](C)[C@H](NC(=O)[C@@H](C)NC(=O)[C@H](CC(C)C)NC(=O)[C@H](CC(C)C)NC(=O)[C@H](CCCCN)NC(=O)[C@H](CCCNC(=N)N)NC(=O)c1ccc(OC)cc1)C(=O)N[C@H](CC(C)C)C(N)=O
B18: mystixin-7 (S-21) (peptide)
peptide: {Benzoyl(4-OMe)}-RKLL[d2Thi]I[dL]-NH2
SMILES: CC[C@H](C)[C@H](NC(=O)[C@@H](Cc1cccs1)NC(=O)[C@H](CC(C)C)NC(=O)[C@H](CC(C)C)NC(=O)[C@H](CCCCN)NC(=O)[C@H](CCCNC(=N)N)NC(=O)c1ccc(OC)cc1)C(=O)N[C@H](CC(C)C)C(N)=O
B19: S-117 (peptide)
peptide: {Benzoyl(4-OMe)}-RKLL[dW]I[dL]-NH2
SMILES: CC[C@H](C)[C@H](NC(=O)[C@@H](Cc1c[nH]c2ccccc12)NC(=O)[C@H](CC(C)C)NC(=O)[C@H](CC(C)C)NC(=O)[C@H](CCCCN)NC(=O)[C@H](CCCNC(=N)N)NC(=O)c1ccc(OC)cc1)C(=O)N[C@H](CC(C)C)C(N)=O
B20: SQW-10 (peptide)
peptide: {Benzoyl(3-OMe)}-RRIAPKL-NH2
SMILES: CC[C@H](C)[C@H](NC(=O)[C@H](CCCNC(=N)N)NC(=O)[C@H](CCCNC(=N)N)NC(=O)c1cccc(OC)c1)C(=O)N[C@@H](C)C(=O)N1CCC[C@H]1C(=O)N[C@@H](CCCCN)C(=O)N[C@@H](CC(C)C)C(N)=O
B21: SQW-4 (peptide)
peptide: {Benzoyl(4-OMe)}-[dR][dR]I[dR]P[dK][dL]-NH2
SMILES: CC[C@H](C)[C@H](NC(=O)[C@@H](CCCNC(=N)N)NC(=O)[C@@H](CCCNC(=N)N)NC(=O)c1ccc(OC)cc1)C(=O)N[C@H](CCCNC(=N)N)C(=O)N1CCC[C@H]1C(=O)N[C@H](CCCCN)C(=O)N[C@H](CC(C)C)C(N)=O

Each binder was assayed against MC receptor endogenous to Xenopus laevis melanophores (Xenopus laevis) (assay: cell-based or functional assay).

MCR Antagonism IC50 nM In Xenopus	IC50 nM in Frog Melanophore Assay	MCR IC50 nM: antagonism of α-MSH (600 pM) darkening of frog melanophores	IC50 in the frog MCR assay	Binder
1200 nM				B1
	175 nM			B2
		155 nM		B3
197 nM				B4
	1050 nM			Ac-RYYRWK-NH2 [Ac-Arg-Tyr-Tyr-Arg-Trp-Lys-NH2]
282 nM				B5
		188 nM		B6
96 nM				B7
		114 nM		B8
166 nM				{Benzoyl(4-OMe)}-RKLL[dNal]I[dL]-NH2 [S-114]
77 nM				B9
234 nM				B10
			> 10000 nM	QGPPISIDLSLELLRKMIEIEKQEKEKQQAANNRLLLDTI (peptide, UniProt P01144 1-40, looked up) [sauvagine]
			10000 nM	SEEPPISLDLTFHLLREVLEMARAEQLAQQAHSNRKLMEII (peptide, UniProt P06850 154-194, looked up) [human CRH]
		75 nM		B11
43 nM				B12
	867 nM			B13
1200 nM				B14
		156 nM		B15
		110 nM		B16
26 nM				B17
237 nM				B18
22 nM				B19
		187 nM		B20
			> 10000 nM	QGKRPWIL (peptide, UniProt P07198 74-81, looked up, ends and bridges not checked) [xenopsin]
		17 nM		B21
